We go through 17 sequences from patent US20190241895.

The series deals with secretory immunoglobulin A (sIgA) (Homo sapiens). Briefly: SPR.
Where [1] appears, read: MK4 (adenine-residue-modified dA) at A after the 5' primer region GGTTTGGACGCAATCTCCCTAATC, 3' poly(dT)20 added for SPR, SPR buffer 1 mM MgCl2 pH 7.4.
Where [2] appears, read: NG7 (guanine-residue-modified T) at T after the 5' primer region GGTTTGGACGCAATCTCCCTAATC, 3' poly(dA)20 added for SPR, SPR buffer 1 mM MgCl2 pH 7.4.
The mark [3] stands for this setting: KS9 (adenine-residue-modified T) at T after the 5' primer region GGTTTGGACGCAATCTCCCTAATC, 3' poly(dA)20 added for SPR, SPR buffer 1 mM MgCl2 pH 7.4.
[4] abbreviates: NG7 (guanine-residue-modified T) at underlined T i.e. T after GCAATCTCCCTAATC, 3' poly(dA)20 added for SPR, SPR buffer 1 mM MgCl2 pH 7.4.
Where [5] appears, read: KS9 (adenine-residue-modified T) at the T after GCAATCTCCCTAATC, 3' poly(dA)20 added for SPR, SPR buffer 1 mM MgCl2 pH 7.4.

The sequence “GGTTTGGACGCAATCTCCCTAATCAGATGATATCGAGATGCGAAGCGACCGCATGAAACTACAATGGGCGGGCTTATC [MK4 aptamer SEQ 2]” registered a dissociation constant Kd under setting [1] of 7.6 nM. Regarding “GGTTTGGACGCAATCTCCCTAATCGATCTAGATGGTCTCGGGTATGGCTAGATAGAAACTACAATGGGCGGGCTTATC [MK4 aptamer SEQ 4]”, under setting [1], the Kd is 17.4 nM.

Take “GGTTTGGACGCAATCTCCCTAATCTAAATAGATTTCACAGTGGATCCTTCAGAGGAAACTACAATGGGCGGGCTTATC [NG7 aptamer SEQ 6]”: the Kd under setting [2] came out at 11.6 nM. The sequence “GGTTTGGACGCAATCTCCCTAATCCTATCTGTTTTATCAATTGTAGCAAGTTATGAAACTACAATGGGCGGGCTTATC [KS9 aptamer SEQ 12]” returned a dissociation constant Kd under setting [3] of 9 nM. In the case of “GGTTTGGACGCAATCTCCCTAATCAAGCCACGGAGAGTCCGAGGTGACCATTAAGCAGGAAACTACAATGGGCGGGCTTA [MK4 aptamer SEQ 3]”, the Kd under setting [1] was 7.6 nM. Sequence “GGTTTGGACGCAATCTCCCTAATCACCTGTACTGGTTATTATGCCTGCCAACATGAAACTACAATGGGCGGGCTTATC [KS9 aptamer SEQ 10]” returned a Kd under setting [3] of 30.2 nM. Still for that read-out and setting: with “GGTTTGGACGCAATCTCCCTAATCTTTATACGTATGGACTTAGGCTTTGTTATAGAAACTACAATGGGCGGGCTTATC [KS9 aptamer SEQ 11]” the figure was 1.3 nM; with “GGTTTGGACGCAATCTCCCTAATCAAAGATATGCTAAGATAGATAGTTTGGCTTGAAACTACAATGGGCGGGCTTATC [KS9 aptamer SEQ 9]”, 4.8 nM. Consider “GCAATCTCCCTAATCTGCTGATGTTTGTATTTCAAATTAGC [NG7 aptamer SEQ 15]”, for which, under setting [4], the dissociation constant Kd came out at 2.59 nM.

Sequence “GGTTTGGACGCAATCTCCCTAATCTGCTGATGTTTGTATTTCAAATTAGCCGCAGAAACTACAATGGGCGGGCTTATC [NG7 aptamer SEQ 5]” yielded a Kd under setting [2] of 11.8 nM. In turn, “GCAATCTCCCTAATCGTATATCAAGCAGATGTGTTCACTTGGGGAG [KS9 aptamer SEQ 17]” registered a Kd under setting [5] of 12.9 nM. For “GGTTTGGACGCAATCTCCCTAATCAGACAATATTAGAGTGTTACCACCTGTGATGAAACTACAATGGGCGGGCTTATC [NG7 aptamer SEQ 7]”, the Kd under setting [2] was found to be 37.7 nM.

The sequence “GCAATCTCCCTAATCAAAGATATGCTAAGATAGATAGTTTGGCTTG [KS9 aptamer SEQ 19]” gave a dissociation constant (Kd) under setting [5] of 8 nM. For the sequence “GCAATCTCCCTAATCTTTATACGTATGGACTTAGGCTTTGTTATAGAAAC [KS9 aptamer SEQ 21]”, the Kd under setting [5] was 2.1 nM. Turning to “GGTTTGGACGCAATCTCCCTAATCGTATATCAAGCAGATGTGTTCACTTGGGGAGAAACTACAATGGGCGGGCTTATC [KS9 aptamer SEQ 8]”, the Kd under setting [3] is 10 nM.

For the setting “MK4 (adenine-residue-modified dA) at A after the 5' primer region GGTTTGGACGCAATCTCCCTAATC, 3' poly(dT)20 added for SPR, 40 mM HEPES, 125 mM NaCl, 5 mM KCl, 1 mM MgCl2, 0.01% Tween 20, pH 7.4”, “GGTTTGGACGCAATCTCCCTAATCTACTACGATATCCAGATGGGAAGTGACCGTGAAACTACAATGGGCGGGCTTATC [MK4 aptamer SEQ 1]” registered a Kd of 8.6 nM.

Sequence “GCAATCTCCCTAATCTGCTGATGTTTGTATTTCAAATTAGCCGCAG [NG7 aptamer SEQ 14]” displayed a Kd under setting [4] of 10 nM.
